Consider one substance from article PMC6045629.

The target in the assay is sc E183-HLA-A2 A245V (HBV | human).

For the substance “CD8 coreceptor (from UniProt P01732 22-235)”, the reduction of IFN-γ production of human E183 CTL after 3 h with T-REx CHO cells expressing the mutant antigen turned out to be 25%.
